Consider two molecules from article PMC5977995.

Data set [1] has as its target T1, hnRNPA1 RNA-binding domain (human, UniProt P09651 1-196). The experiment in a line: EMSA. Background: A gel shift assay detects complexes by their altered migration in electrophoresis.
Data set [2] deals with T1, hnRNPA1 RNA-binding domain. The experiment in a line: UV photo-cross-linking.

T1 sequence (P09651 1-196): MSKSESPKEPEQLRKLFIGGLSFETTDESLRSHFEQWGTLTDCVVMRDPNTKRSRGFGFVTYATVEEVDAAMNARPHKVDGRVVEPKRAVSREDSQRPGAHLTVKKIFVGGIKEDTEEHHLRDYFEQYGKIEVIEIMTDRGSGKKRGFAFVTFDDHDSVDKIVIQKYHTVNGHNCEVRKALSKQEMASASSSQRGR

B1: 24-mer telomere RNA (structured_RNA)
RNA: UUAGGGUUAGGGUUAGGGUUAGGG
One may read the Kd as a measure of binding affinity in units of concentration. The low end stands for a tighter complex, the high end for a looser complex. The molecule B1 came in with a Kd in data set [1] of 37.6 nM.

B2: BrU 12-mer telomere RNA (structured_RNA)
RNA: UUAGGGUUAGGG
modifications: 5-bromouridine at position 8 (printed UUAGGGU(BrU)-AGGG)
In the case of B2, in data set [2], the binding result is “binds”.
